Starred links: 1 amine or outer side, 2 acyl side, 3 side chain; linkers in the order of their positions; H or OH if unused. Non-standard residues stand in square brackets, D forms with d. Groups on a side chain read outwards from the residue. Primed or numbered codes have the meaning given here. No end group written: not given here. *: point of attachment. γGlu = O=C(O)[C@H](CCC(=O)[*:2])N[*:1]; αMeF = C[C@](N)(Cc1ccccc1)C(=O)O; αMeK = C[C@](N)(CCCCN)C(=O)O; Lauroyl = CCCCCCCCCCCC(=O)*; αMeS = C[C@](N)(CO)C(=O)O; PEG2′ = not defined here; Aib = CC(C)(N)C(=O)O
biological target: T1, glucose-dependent insulinotropic peptide (gastric inhibitory polypeptide) receptor (GIPR), primary cAMP assay … (human, UniProt P48546 22-466); test: cell-based or functional assay
T1 sequence (looked up): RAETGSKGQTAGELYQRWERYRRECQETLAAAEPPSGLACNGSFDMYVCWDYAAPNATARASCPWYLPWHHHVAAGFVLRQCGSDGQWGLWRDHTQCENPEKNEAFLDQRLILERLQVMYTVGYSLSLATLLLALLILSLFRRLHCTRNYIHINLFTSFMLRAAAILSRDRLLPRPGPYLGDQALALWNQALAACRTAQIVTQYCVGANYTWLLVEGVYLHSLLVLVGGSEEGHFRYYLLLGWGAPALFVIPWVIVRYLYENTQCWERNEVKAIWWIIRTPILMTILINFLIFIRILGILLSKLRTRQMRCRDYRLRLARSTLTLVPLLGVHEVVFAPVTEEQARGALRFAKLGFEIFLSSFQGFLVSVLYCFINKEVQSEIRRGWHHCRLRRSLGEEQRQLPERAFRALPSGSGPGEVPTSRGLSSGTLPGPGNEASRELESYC

Binder	cAMP Primary assay EC50, n1	cAMP Primary assay EC50, n2
H[Aib]EGS[αMeF]TSDV[αMeS]SYK([PEG2′-PEG2′-γGlu-Lauroyl])EK([PEG2′-PEG2′-γGlu-Lauroyl])EAA[αMeK]EFIK([PEG2′-PEG2′-γGlu-Lauroyl])FVVEGG-NH2 [SEQ ID NO: 451]	19.7 nM	19.5 nM
H[Aib]EGS[αMeF]TSDVSK([PEG2′-PEG2′-γGlu-Lauroyl])YLEGEAA[αMeK]K([PEG2′-PEG2′-γGlu-Lauroyl])FIK([PEG2′-PEG2′-γGlu-Lauroyl])FVVEGG-NH2 [SEQ ID NO: 446]	19.7 nM	19.7 nM
H[Aib]EGS[αMeF]TSDV[αMeS]SK([PEG2′-PEG2′-γGlu-Lauroyl])LEGK([PEG2′-PEG2′-γGlu-Lauroyl])AA[αMeK]EFIK([PEG2′-PEG2′-γGlu-Lauroyl])FVVEGG-NH2 [SEQ ID NO: 448]	19.9 nM	19.9 nM
H[Aib]EGS[αMeF]TSDV[αMeS]SYK([PEG2′-PEG2′-γGlu-Lauroyl])EGK([PEG2′-PEG2′-γGlu-Lauroyl])AA[αMeK]EFIK([PEG2′-PEG2′-γGlu-Lauroyl])FVVEGG-NH2 [SEQ ID NO: 452]	19.5 nM	19.7 nM
H[Aib]EGS[αMeF]TSDVSK([PEG2′-PEG2′-γGlu-Lauroyl])YLEGEK([PEG2′-PEG2′-γGlu-Lauroyl])A[αMeK]EFIK([PEG2′-PEG2′-γGlu-Lauroyl])FVVEGG-NH2 [SEQ ID NO: 445]	19.5 nM	19.5 nM
H[Aib]EGS[αMeF]TSDV[αMeS]SYK([PEG2′-PEG2′-γGlu-Lauroyl])EGEK([PEG2′-PEG2′-γGlu-Lauroyl])A[αMeK]EFIK([PEG2′-PEG2′-γGlu-Lauroyl])FVVEGG-NH2 [SEQ ID NO: 453]	19.5 nM	19.5 nM
H[Aib]EGS[αMeF]TSDVSK([PEG2′-PEG2′-γGlu-Lauroyl])YLEGK([PEG2′-PEG2′-γGlu-Lauroyl])AA[αMeK]EFIAK([PEG2′-PEG2′-γGlu-Lauroyl])VVEGG-NH2 [SEQ ID NO: 460]	20 nM	20 nM

biological target: glucagon receptor (GCGR), primary cAMP assay cell line (human, UniProt P47871 26-477); test: cell-based or functional assay
Sequence (P47871 26-477): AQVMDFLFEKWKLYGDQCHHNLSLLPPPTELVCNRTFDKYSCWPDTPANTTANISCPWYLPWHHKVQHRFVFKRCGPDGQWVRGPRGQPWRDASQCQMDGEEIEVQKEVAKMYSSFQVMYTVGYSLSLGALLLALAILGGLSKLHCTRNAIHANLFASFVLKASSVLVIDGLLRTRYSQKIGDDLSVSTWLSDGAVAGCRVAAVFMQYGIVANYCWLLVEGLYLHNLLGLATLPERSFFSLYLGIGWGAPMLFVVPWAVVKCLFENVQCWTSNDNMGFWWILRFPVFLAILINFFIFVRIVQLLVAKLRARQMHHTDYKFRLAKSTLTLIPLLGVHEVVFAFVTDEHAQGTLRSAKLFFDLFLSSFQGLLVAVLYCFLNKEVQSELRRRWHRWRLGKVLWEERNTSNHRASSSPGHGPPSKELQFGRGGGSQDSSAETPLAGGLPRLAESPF

Binder	cAMP Primary assay EC50, n1	cAMP Primary assay EC50, n2
H[Aib]EGS[αMeF]TSDV[αMeS]SYK([PEG2′-PEG2′-γGlu-Lauroyl])EK([PEG2′-PEG2′-γGlu-Lauroyl])EAA[αMeK]EFIK([PEG2′-PEG2′-γGlu-Lauroyl])FVVEGG-NH2 [SEQ ID NO: 451]	19.7 nM	19.5 nM
H[Aib]EGS[αMeF]TSDVSK([PEG2′-PEG2′-γGlu-Lauroyl])YLEGEAA[αMeK]K([PEG2′-PEG2′-γGlu-Lauroyl])FIK([PEG2′-PEG2′-γGlu-Lauroyl])FVVEGG-NH2 [SEQ ID NO: 446]	19.7 nM	19.7 nM
H[Aib]EGS[αMeF]TSDV[αMeS]SK([PEG2′-PEG2′-γGlu-Lauroyl])LEGK([PEG2′-PEG2′-γGlu-Lauroyl])AA[αMeK]EFIK([PEG2′-PEG2′-γGlu-Lauroyl])FVVEGG-NH2 [SEQ ID NO: 448]	19.9 nM	19.9 nM
H[Aib]EGS[αMeF]TSDV[αMeS]SYK([PEG2′-PEG2′-γGlu-Lauroyl])EGK([PEG2′-PEG2′-γGlu-Lauroyl])AA[αMeK]EFIK([PEG2′-PEG2′-γGlu-Lauroyl])FVVEGG-NH2 [SEQ ID NO: 452]	19.5 nM	19.7 nM
H[Aib]EGS[αMeF]TSDVSK([PEG2′-PEG2′-γGlu-Lauroyl])YLEGEK([PEG2′-PEG2′-γGlu-Lauroyl])A[αMeK]EFIK([PEG2′-PEG2′-γGlu-Lauroyl])FVVEGG-NH2 [SEQ ID NO: 445]	19.5 nM	19.5 nM
H[Aib]EGS[αMeF]TSDV[αMeS]SYK([PEG2′-PEG2′-γGlu-Lauroyl])EGEK([PEG2′-PEG2′-γGlu-Lauroyl])A[αMeK]EFIK([PEG2′-PEG2′-γGlu-Lauroyl])FVVEGG-NH2 [SEQ ID NO: 453]	19.5 nM	19.5 nM
H[Aib]EGS[αMeF]TSDVSK([PEG2′-PEG2′-γGlu-Lauroyl])YLEGK([PEG2′-PEG2′-γGlu-Lauroyl])AA[αMeK]EFIAK([PEG2′-PEG2′-γGlu-Lauroyl])VVEGG-NH2 [SEQ ID NO: 460]	20 nM	20 nM

biological target: GLP-1 receptor (GLP-1R), primary cAMP assay cell line (human, UniProt P43220 24-463); test: cell-based or functional assay

Binder	cAMP Primary assay EC50, Mean pM GLP-1R	cAMP Primary assay EC50, n1	cAMP Primary assay EC50, n2
H[Aib]EGS[αMeF]TSDV[αMeS]SYK([PEG2′-PEG2′-γGlu-Lauroyl])EK([PEG2′-PEG2′-γGlu-Lauroyl])EAA[αMeK]EFIK([PEG2′-PEG2′-γGlu-Lauroyl])FVVEGG-NH2 [SEQ ID NO: 451]	93.4 pM	0.0288 nM	0.158 nM
H[Aib]EGS[αMeF]TSDVSK([PEG2′-PEG2′-γGlu-Lauroyl])YLEGEAA[αMeK]K([PEG2′-PEG2′-γGlu-Lauroyl])FIK([PEG2′-PEG2′-γGlu-Lauroyl])FVVEGG-NH2 [SEQ ID NO: 446]	107 pM	0.0873 nM	0.127 nM
H[Aib]EGS[αMeF]TSDV[αMeS]SK([PEG2′-PEG2′-γGlu-Lauroyl])LEGK([PEG2′-PEG2′-γGlu-Lauroyl])AA[αMeK]EFIK([PEG2′-PEG2′-γGlu-Lauroyl])FVVEGG-NH2 [SEQ ID NO: 448]	92.4 pM	0.0788 nM	0.106 nM
H[Aib]EGS[αMeF]TSDV[αMeS]SYK([PEG2′-PEG2′-γGlu-Lauroyl])EGK([PEG2′-PEG2′-γGlu-Lauroyl])AA[αMeK]EFIK([PEG2′-PEG2′-γGlu-Lauroyl])FVVEGG-NH2 [SEQ ID NO: 452]	80.9 pM	0.0857 nM	0.0761 nM
H[Aib]EGS[αMeF]TSDVSK([PEG2′-PEG2′-γGlu-Lauroyl])YLEGEK([PEG2′-PEG2′-γGlu-Lauroyl])A[αMeK]EFIK([PEG2′-PEG2′-γGlu-Lauroyl])FVVEGG-NH2 [SEQ ID NO: 445]	260 pM	0.242 nM	0.277 nM
H[Aib]EGS[αMeF]TSDV[αMeS]SYK([PEG2′-PEG2′-γGlu-Lauroyl])EGEK([PEG2′-PEG2′-γGlu-Lauroyl])A[αMeK]EFIK([PEG2′-PEG2′-γGlu-Lauroyl])FVVEGG-NH2 [SEQ ID NO: 453]	114 pM	0.0629 nM	0.165 nM
H[Aib]EGS[αMeF]TSDVSK([PEG2′-PEG2′-γGlu-Lauroyl])YLEGK([PEG2′-PEG2′-γGlu-Lauroyl])AA[αMeK]EFIAK([PEG2′-PEG2′-γGlu-Lauroyl])VVEGG-NH2 [SEQ ID NO: 460]	78.1 pM	0.0674 nM	0.0888 nM

From patent US20200079833A1 (AstraZeneca / MedImmune, published 2020)
